Assay results taken from patent publication US8932825B2.

Biological target: Kringle 3 domain of human plasminogen (K3) with a C-terminal hexa-histidine tag, made in P. pastoris (human) (UniProt P00747)

- increase in mass by MALDI-TOF mass spectrometry of the protein and of its released N-glycans: 325 Da
Substance: beta 1,4-galactosyltransferase from bovine milk (from UniProt P08037) (enzyme)
